In article PMC4253602 (Molecular oncology, 2014):
Where two headings read alike, the source gives them in different places.

T1: full-length wt-AR (VP16 fusion) (human, UniProt P10275 1-920)
T1 sequence (looked up): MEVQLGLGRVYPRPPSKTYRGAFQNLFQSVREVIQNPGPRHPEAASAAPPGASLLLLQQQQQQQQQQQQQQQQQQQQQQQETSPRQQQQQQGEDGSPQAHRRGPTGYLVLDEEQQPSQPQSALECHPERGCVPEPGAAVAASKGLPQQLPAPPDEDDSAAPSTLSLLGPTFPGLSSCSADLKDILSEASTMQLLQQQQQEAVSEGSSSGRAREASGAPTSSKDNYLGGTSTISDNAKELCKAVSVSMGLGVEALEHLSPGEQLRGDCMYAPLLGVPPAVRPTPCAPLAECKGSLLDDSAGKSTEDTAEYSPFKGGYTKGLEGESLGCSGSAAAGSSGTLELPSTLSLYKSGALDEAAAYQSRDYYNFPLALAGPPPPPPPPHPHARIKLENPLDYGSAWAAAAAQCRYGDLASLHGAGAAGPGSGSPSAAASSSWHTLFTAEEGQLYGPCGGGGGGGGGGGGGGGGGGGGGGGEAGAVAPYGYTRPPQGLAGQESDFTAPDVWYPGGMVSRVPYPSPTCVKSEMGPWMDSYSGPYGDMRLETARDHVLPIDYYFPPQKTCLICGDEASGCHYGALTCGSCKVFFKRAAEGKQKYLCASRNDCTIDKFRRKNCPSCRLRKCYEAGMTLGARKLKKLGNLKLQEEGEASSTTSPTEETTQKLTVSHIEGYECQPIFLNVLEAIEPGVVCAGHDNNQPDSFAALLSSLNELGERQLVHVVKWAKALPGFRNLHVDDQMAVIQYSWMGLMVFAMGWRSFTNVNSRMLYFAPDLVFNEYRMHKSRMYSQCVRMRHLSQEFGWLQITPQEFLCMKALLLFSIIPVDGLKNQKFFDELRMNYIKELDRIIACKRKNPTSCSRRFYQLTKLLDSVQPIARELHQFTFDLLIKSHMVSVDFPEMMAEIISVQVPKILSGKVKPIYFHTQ

B1: B311 (Gal-4 fusion) (peptide)
peptide: HKASPFNYYYLN
B2: C317 (Gal-4 fusion) (peptide)
peptide: TEPPAAFRQLFF
B3: B426 (Gal-4 fusion) (peptide)
peptide: EASNSSFARLFH
B4: B46 (Gal-4 fusion) (peptide)
peptide: ANSSFRDWYTSS
B5: C314 (Gal-4 fusion) (peptide)
peptide: SSFADLWRNEAT
B6: C41 (Gal-4 fusion) (peptide)
peptide: SFYDFYNGASTP
B7: A49 (Gal-4 fusion) (peptide)
peptide: VLPGSTFERFYR
B8: HF-15 (Gal-4 fusion) (peptide)
peptide: HTSMFESFFRKE
B9: D30 (Gal-4 fusion) (peptide)
peptide: HPTHSSRLWELLMEATPTM
B10: HF-26 (Gal-4 fusion) (peptide)
peptide: HASPFEMHYLLG
B11: B34 (Gal-4 fusion) (peptide)
peptide: SPFEEHYLSTQS
B12: A48 (Gal-4 fusion) (peptide)
peptide: DPPTSKFSTFYQ
B13: B423 (Gal-4 fusion) (peptide)
peptide: SPTRLFDHLYMT
B14: C320 (Gal-4 fusion) (peptide)
peptide: SDSAFSRLYTRS
B15: A47 (Gal-4 fusion) (peptide)
peptide: DSQYSSFSRYYK
B16: B32 (Gal-4 fusion) (peptide)
peptide: NTTDTLFSQHYR
B17: B49 (Gal-4 fusion) (peptide)
peptide: SKFSQLYSYEPP
B18: #3-18 (Gal-4 fusion) (peptide)
peptide: NTNAFSRLFYPS
B19: A310 (Gal-4 fusion) (peptide)
peptide: SHSSFYQYYLDN
B20: A41 (Gal-4 fusion) (peptide)
peptide: SSGGFERFYIAQ
B21: B37 (Gal-4 fusion) (peptide)
peptide: HNTKFSTFYNMD
B22: B310 (Gal-4 fusion) (peptide)
peptide: SPTPHFTRLFHY
B23: ARN20 (Gal-4 fusion) (peptide)
peptide: RGAFQNLFQSV
B24: B411 (Gal-4 fusion) (peptide)
peptide: HPARTSFETHYM
B25: B414 (Gal-4 fusion) (peptide)
peptide: NPRTPTTFERYY
B26: C33 (Gal-4 fusion) (peptide)
peptide: STFESLYNNMTA
B27: BUD31 peptide (Gal-4 fusion) (peptide)
peptide: KTRYIFDLFYKRKAY
B28: B45 (Gal-4 fusion) (peptide)
peptide: NTPLFQTFYNQR
B29: A43 (Gal-4 fusion) (peptide)
peptide: PAPKFKEFFYAE

Key:
[1] = target: ARN20-FY (biotinylated peptide) (human); assay: SPR
[2] = target: C320-YY (biotinylated peptide); assay: SPR
[3] = target: C320-WY (biotinylated peptide); assay: SPR
[4] = target: ARN20-LY (biotinylated peptide) (human); assay: SPR
[5] = target: C320-HY (biotinylated peptide); assay: SPR
[6] = target: ARN20-WY (biotinylated peptide) (human); assay: SPR
C320-LY (Biotin-C320) = assay: SPR
[7] = target: ARN20-HY (biotinylated peptide) (human); assay: SPR
[8] = target: T1, full-length wt-AR (VP16 fusion); assay: two-hybrid
[9] = target: full-length T877A-AR (VP16 fusion) (human); assay: two-hybrid
[10] = target: full-length T877A-AR (VP16 fusion) (human); assay: two-hybrid; remark: listed apart in the source

Molecule | two-hybrid reporter activity (Gal-4 = 1) [8] | two-hybrid reporter activity (Gal-4 = 1) [9] | two-hybrid reporter activity (Gal-4 = 1) [10] | further results
wild-type AR-DBD-LBD (domain or fragment) |  |  |  | Kd [1]: 38 nM; Kd [2]: 3800 nM; Kd [3]: 140 nM; Kd [4]: 100 nM; Kd [5]: 38000 nM; Kd [6]: 500 nM; Kd (C320-LY (Biotin-C320)): 30 nM; Kd [7]: 140000 nM
B1 | 46 |  |  | 
B2 | 6600 | 5230 | 4380 | 
B3 | 13500 | 9550 | 1510 | 
B4 | 792 | 376 | 1260 | 
B5 | 1140 | 859 | 121 | 
B6 | 23 |  |  | 
B7 | 25 | 26 |  | 
B8 | 11500 | 13900 | 14500 | 
B9 | 19900 | 18100 | 8800 | 
B10 | 8900 | 8400 | 8900 | 
B11 | 42 | 37 |  | 
B12 | 32 |  |  | 
B13 | 1220 | 401 | 168 | 
B14 | 13400 | 12700 | 4650 | 
B15 | 21 |  |  | 
B16 | 41 |  |  | 
B17 | 1790 | 1030 | 318 | 
B18 | 12500 | 11000 |  | 
B19 | 4770 | 3590 | 4460 | 
B20 | 4310 | 3060 | 3510 | 
B21 | 9160 | 6240 | 8710 | 
B22 | 17800 | 12100 | 6720 | 
B23 | 1310 | 1580 | 1420 | 
B24 | 13 |  | 16 | 
B25 | 18 |  |  | 
B26 | 1330 | 1020 | 399 | 
B27 | 8940 | 12000 | 4870 | 
B28 | 18000 | 12600 | 17200 | 
B29 | 8840 | 7350 | 8300 | 
